Experimental data reported in US20060265769A1 (BETH ISRAEL DEACONESS MEDICAL CENTER, published 2006).

T1: SHP-2 (UniProt P35235 2-593)
T1 sequence (looked up): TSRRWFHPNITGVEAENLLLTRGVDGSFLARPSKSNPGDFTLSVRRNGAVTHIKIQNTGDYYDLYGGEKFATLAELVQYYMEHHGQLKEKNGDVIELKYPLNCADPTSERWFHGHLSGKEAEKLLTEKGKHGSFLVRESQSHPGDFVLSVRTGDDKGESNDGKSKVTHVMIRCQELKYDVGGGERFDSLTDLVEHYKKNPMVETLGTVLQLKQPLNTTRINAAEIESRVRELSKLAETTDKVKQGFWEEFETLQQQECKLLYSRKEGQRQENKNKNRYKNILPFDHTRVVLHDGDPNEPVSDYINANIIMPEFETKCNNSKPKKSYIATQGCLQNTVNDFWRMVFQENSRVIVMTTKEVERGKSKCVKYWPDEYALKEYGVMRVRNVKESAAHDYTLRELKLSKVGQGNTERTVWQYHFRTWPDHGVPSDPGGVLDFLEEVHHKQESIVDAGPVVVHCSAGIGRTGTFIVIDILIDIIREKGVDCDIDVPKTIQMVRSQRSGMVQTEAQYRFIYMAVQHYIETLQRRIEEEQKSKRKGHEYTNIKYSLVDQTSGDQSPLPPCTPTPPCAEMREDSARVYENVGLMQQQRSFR

B1: Crk (other, UniProt Q64010 2-304, looked up)
chain: AGNFDSEERSSWYWGRLSRQEAVALLQGQRHGVFLVRDSSTSPGDYVLSVSENSRVSHYIINSSGPRPPVPPSPAQPPPGVSPSRLRIGDQEFDSLPALLEFYKIHYLDTTTLIEPVARSRQGSGVILRQEEAEYVRALFDFNGNDEEDLPFKKGDILRIRDKPEEQWWNAEDSEGKRGMIPVPYVEKYRPASASVSALIGGNQEGSHPQPLGGPEPGPYAQPSVNTPLPNLQNGPIYARVIQKRVPNAYDKTALALEVGELVKVTKINVSGQWEGECNGKRGHFPFTHVRLLDQQNPDEDFS
B2: Crk-II (other, UniProt Q64010-1 2-304, looked up)
chain: B1 chain
B3: Crk-L (other, UniProt P47941 1-303, looked up)
chain: MSSARFDSSDRSAWYMGPVTRQEAQTRLQGQRHGMFLVRDSSTCPGDYVLSVSENSRVSHYIINSLPNRRFKIGDQEFDHLPALLEFYKIHYLDTTTLIEPAPRYPSPPVGSVSAPNLPTAEENLEYVRTLYDFPGNDAEDLPFKKGELLVIIEKPEEQWWSARNKDGRVGMIPVPYVEKLVRSSPHGKHGNRNSNSYGIPEPAHAYAQPQTTTPLPTVASTPGAAINPLPSTQNGPVFAKAIQKRVPCAYDKTALALEVGDIVKVTRMNINGQWEGEVNGRKGLFPFTHVKIFDPQNPDDNE
B4: Gab2HA (other, not shown: small tags and cut ends)
chain: MSGGGGDDVVCTGWLRKSPPEKKLRRYAWKKRWFILRSGRMSGDPDVLEYYKNEHSKKPLRIINLNLCEQVDAGLTFNKKELQDSFVFDIKTSERTFYLVAETEADMNKWVQSICQICGFNQAEESTDSLRNLSSASHGPRSSPAEFSSSQHLLRERKSSAPSHSSQPTLFTFEPPVSSHMQPTLSTSAPQEYLYLHQCISRRTENARSASFSQGTRQKSDTAVQKLAQSNGHCINGVGGQVHGFYSLPKPSRHNTEFKDSTYDLPRSLASHGHTKSSLTGSETDNEDVYTFKMPSNTLCRELGDLLVDNMDVPTTPLSAYQIPRTFTLDKNHNAMTVATPGDSAIAPPPRPPKPSQAETSQWGSIQQRPPISENSRSVAATIPRRNTLPAMDNSRLHRASSCETYEYPARGSGESASWSAEPPGKTAVGRSNSASSDDNYVPMNPGSSTLLAMERPGDNSQSVYIPMSPGPHHFDPLGYPSTALPIHRGPSRGSEIQPPPVNRNLKPDRKAKPTPLDLRNNTVIDELPFKSPVTKSWSRINSHTFNSSSSQYCRPISTQSITSTDSGDSEENYVPMQNPVSASPVPSGTNSPAPKKSTGSVDYLALDFQPGSPSPHRKPSTSSVTSDEKVDYVQVDKEKTQALQNTMQEWTDVRQSSEPSKGAKL
modifications: tyrosyl phosphorylated upon IL-3 stimulation

Columns and labels:
[1] = target: T2, Gab2 (mouse, UniProt Q9Z1S8 1-665, tyrosyl phosphorylated upon stimulation (Y604 and Y633 said to be highly phosphorylated)); test: co-immunoprecipitation and immunoblotting, BaF3 cells
T2 construct: Scaffolding protein; Endogenous protein in lysates of BaF3, BAC1.2F5 and P210BCR-ABL BaF3 cells; also called p97; p97/Gab2

[2] = target: B4; test: as above
[3] = target: T1, SHP-2; test: cell-based or functional assay

| binding result [1] | binding result [2] | basal c-fos luciferase activity in BaF3 cells [3] | Binder |
| --- | --- | --- | --- |
| no binding | no binding |  | B1 |
| no binding | no binding |  | B2 |
| no binding | no binding |  | B3 |
|  |  | ~2 fold | B4 |
